Laboratory results from article PMC6237974.

Columns and labels:
VgrS sensor = assay: SPR
[1] = system: VgrR-P (phosphorylated by VgrS + ATP) (Xanthomonas campestris pv. campestris 8004); assay: MST; conditions: MST: 50 mM Tris-HCl pH 7.4, 150 mM NaCl, 10 mM MgCl2, 0.05% Tween-20; EMSA: 10 mM Tris-HCl pH 7.5, 50 mM KCl, 1 mM DTT, 50 ng poly(dI:dC), 10 mM EDTA, 28 C
[2] = molecular target: VgrS sensor (Xanthomonas campestris pv. campestris 8004); assay: SPR; Biacore 3000, VgrS sensor trapped on a CM5 chip, Prc forms injected at 30 μl/min, 25 °C, PBST pH 7.4
[3] = molecular target: VgrS sensor (Xanthomonas campestris pv. campestris 8004); assay: MST; VgrS sensor labelled with NT-647, titrated with Prc forms in NTA buffer (300 mM NaCl, 50 mM sodium phosphate, pH 7.0) with 0.05% Tween; Monolith NT.115; three replicates
[4] = molecular target: Prc^S475A monomer (Xanthomonas campestris pv. campestris 8004); assay: SEC + AUC; Prc^S475A separated by gel filtration; sedimentation velocity of each peak at 20 °C, sodium phosphate buffer pH 8.0 plus 150 mM NaCl
[5] = molecular target: cytoplasmic region of VgrS that contained the HAMP and transmitter regions (Xanthomonas campestris pv. campestris 8004); assay: not stated; Supplementary Fig. 4b and 4c; Prc with the cytoplasmic region of VgrS

Prc^S475A monomer
Ka (VgrS sensor; enzyme): 29500 M⁻¹
koff (VgrS sensor; enzyme): 0.00842 s⁻¹

PXC_3300 promoter probe
Kd [1]: 30.7 µM

recombinant Prc^S475A containing peptidase and DUF regions (domain or fragment)
Kd [2]: 22.4 µM
Kd [3]: 0.27 µM

recombinant Prc^S475A containing peptidase and DUF regions
Ka (VgrS sensor; domain or fragment): 44700 M⁻¹

Prc^S475A monomer (enzyme)
Kd [2]: 33.9 µM
Kd [3]: 0.65 µM
stoichiometry N [4]: 3

Prc (form not told, binding to the cytoplasmic region of VgrS) (enzyme)
Kd [5]: 191 µM

PrcΔPDZ^S475A (enzyme)
Kd [3]: 1.95 µM
